Results taken from PMC3974617 (Developmental cell, 2013).

Target: the molecule itself
Experiment: negative-stain EM

B1: full-length recombinant human VPS41 (His-hVPS41) (natural protein, UniProt P49754 1-854, looked up)
chain: MAEAEEQETGSLEESTDESEEEESEEEPKLKYERLSNGVTEILQKDAASCMTVHDKFLALGTHYGKVYLLDVQGNITQKFDVSPVKINQISLDESGEHMGVCSEDGKVQVFGLYSGEEFHETFDCPIKIIAVHPHFVRSSCKQFVTGGKKLLLFERSWMNRWKSAVLHEGEGNIRSVKWRGHLIAWANNMGVKIFDIISKQRITNVPRDDISLRPDMYPCSLCWKDNVTLIIGWGTSVKVCSVKERHASEMRDLPSRYVEIVSQFETEFYISGLAPLCDQLVVLSYVKEISEKTEREYCARPRLDIIQPLSETCEEISSDALTVRGFQENECRDYHLEYSEGESLFYIVSPRDVVVAKERDQDDHIDWLLEKKKYEEALMAAEISQKNIKRHKILDIGLAYINHLVERGDYDIAARKCQKILGKNAALWEYEVYKFKEIGQLKAISPYLPRGDPVLKPLIYEMILHEFLESDYEGFATLIREWPGDLYNNSVIVQAVRDHLKKDSQNKTLLKTLAELYTYDKNYGNALEIYLTLRHKDVFQLIHKHNLFSSIKDKIVLLMDFDSEKAVDMLLDNEDKISIKKVVEELEDRPELQHVYLHKLFKRDHHKGQRYHEKQISLYAEYDRPNLLPFLRDSTHCPLEKALEICQQRNFVEETVYLLSRMGNSRSALKMIMEELHDVDKAIEFAKEQDDGELWEDLILYSIDKPPFITGLLNNIGTHVDPILLIHRIKEGMEIPNLRDSLVKILQDYNLQILLREGCKKILVADSLSLLKKMHRTQMKGVLVDEENICESCLSPILPSDAAKPFSVVVFHCRHMFHKECLPMPSMNSAAQFCNICSAKNRGPGSAILEMKK
B1 was tested, and the “stoichiometry N” value was 2.
